The values that follow come from US20200317768A1 (published 2020).

Where a chain is given by its changes, count along the chain named. Numbers in names are those of the source.

The target of experiment [1] is T1, human FcγRIIb extracellular domain, C-terminal His-tag (human, UniProt P31994 43-217).
T1 construct: also called FcgRIIb; not shown: His-tag added to the C-terminus
T1 sequence: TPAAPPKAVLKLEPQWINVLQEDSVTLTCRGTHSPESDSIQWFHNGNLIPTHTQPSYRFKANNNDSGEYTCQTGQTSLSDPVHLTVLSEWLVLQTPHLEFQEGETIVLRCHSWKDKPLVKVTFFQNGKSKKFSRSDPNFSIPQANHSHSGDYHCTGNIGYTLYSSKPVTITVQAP
The experiment can be described thus: SPR (BIACORE), antibody captured, soluble FcgR as analyte, 25C. Here is the method:
(§1) The kinetic analysis of interactions between these antibodies and FcγR was carried out using BIACORE® T200 or BIACORE® 4000 (GE Healthcare). HBS-EP+ (GE Healthcare) was used as the running buffer, and the measurement temperature was set to 25° C. A chip produced by immobilizing Protein A. Protein A/G or mouse anti-human IgG kappa light chain (BD Biosciences) onto a Series S Sensor Chip CM4 or CM5 (GE Healthcare) by the amine-coupling method was used. […] After the measurement, the antibody captured on the chip was washed off by allowing reaction with 10 mM glycine-HCl, pH1.5 and 25 mM NaOH so that the chip was regenerated and used repeatedly. The sensorgrams obtained as measurement results were analyzed by the 1:1 Langmuir binding model using the BIACORE® Evaluation Software to calculate the binding rate constant ka (L/mol/s) and dissociation rate constant kd (l/s), and the dissociation constant KD (mol/L) was calculated from these values. […] Regarding such interactions, KD values were calculated using the following 1:1 binding model described in BIACORE® T100 Software Handbook BR1006-48 Edition AE.
(§2) The behavior of interacting molecules according to the 1:1 binding model on BIACORE® can be described by Equation 1: Req=C·R max/(KD+C)+RI, wherein, Req is a plot of steady-state binding levels to analyte concentration. C is concentration, RI is bulk refractive index contribution in the sample, and Rmax is analyte binding capacity of the surface. When this equation is rearranged, KD can be expressed as Equation 2: KD=C·Rmax/(Req−RI)−C. KD can be calculated by substituting the values of Rmax, RI, and C into Equation 1 or Equation 2. From the current measurement conditions, RI=0, C=2 μmol/L can be used.
In general terms: SPR reads the build-up and loss of mass on a sensor chip optically.

In experiment [2] the target is T2, cynomolgus monkey FcγRIIa1 extracellular domain, C-terminal His-tag (cynomolgus monkey).
T2 construct: also called cyno FcγRIIa1; FcgRIIa1; not shown: His-tag added to the C-terminus
T2 chain: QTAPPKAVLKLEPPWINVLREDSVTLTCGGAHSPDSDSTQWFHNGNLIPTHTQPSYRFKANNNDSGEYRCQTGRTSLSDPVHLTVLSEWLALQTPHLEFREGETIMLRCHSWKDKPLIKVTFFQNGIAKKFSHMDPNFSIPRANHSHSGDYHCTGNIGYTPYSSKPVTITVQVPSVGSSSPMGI
The experiment is described as above. Here is the method:
as §1, §2

For experiment [3], the target named is T3, human FcγRIIIaV extracellular domain, C-terminal His-tag (human, UniProt P08637 17-208).
T3 construct: also called FcgRIIIaV; not shown: His-tag added to the C-terminus
The description is as above. Here is the method:
as §1, §2

Experiment [4] has as its target T4, human FcγRIIaH extracellular domain, C-terminal His-tag (human, UniProt P12318 34-217).
T4 construct: also called human FcγRIIa (type H); FcgRIIaH; not shown: His-tag added to the C-terminus
T4 sequence: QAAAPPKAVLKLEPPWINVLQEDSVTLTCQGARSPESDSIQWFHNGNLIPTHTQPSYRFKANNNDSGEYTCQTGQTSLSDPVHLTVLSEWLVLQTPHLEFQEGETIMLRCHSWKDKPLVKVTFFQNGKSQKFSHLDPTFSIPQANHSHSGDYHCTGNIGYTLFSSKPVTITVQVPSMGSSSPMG
Described as above. Here is the method:
as §1, §2

Experiment [5] deals with T5, cynomolgus monkey FcγRIIa2 extracellular domain, C-terminal His-tag (cynomolgus monkey).
T5 construct: also called cyno FcγRIIa2; FcgRIIa2; not shown: His-tag added to the C-terminus
T5 chain: T2 chain with P95T, T121A, I127K, A128S, K130N, D135N, R142Q
The experiment is described as above. Here is the method: as §1, §2

Experiment [6] addresses T6, cynomolgus monkey FcγRIIa3 extracellular domain, C-terminal His-tag (cynomolgus monkey).
T6 construct: also called cyno FcγRIIa3; FcgRIIa3; not shown: His-tag added to the C-terminus
T6 chain: T2 chain with P95T, T121A, A128S, H133P, D135N
The description is as above. Here is the method: as §1, §2

Experiment [7] concerns the target T7, cynomolgus monkey FcγRIIIaS extracellular domain, C-terminal His-tag (cynomolgus monkey, UniProt A3RFZ7 21-206 (rhesus entry)).
T7 construct: also called cyno FcγRIIIaS; FcgRIIIaS; not shown: His-tag added to the C-terminus
The description is as above. Here is the method:
as §1, §2

The target in experiment [8] is T8, human FcγRIIaR extracellular domain, C-terminal His-tag (human, UniProt P12318 34-217).
T8 construct: also called human FcγRIIa (type R); FcgRIIaR; not shown: His-tag added to the C-terminus
T8 chain: T4 sequence with H134R
The experiment is described as above. Here is the method: as §1, §2

Experiment [9] deals with T9, cynomolgus monkey FcγRIIa3 extracellular domain, C-terminal His-tag (cynomolgus monkey).
T9 construct: also called cyno FcγRIIa3; cynoFcgRIIa3
T9 chain: T2 chain with P95T, T121A, A128S, H133P, D135N
The experiment can be described thus: SPR (Biacore), antibody captured, FcgR analyte.

T3 sequence (P08637 17-208 F176V): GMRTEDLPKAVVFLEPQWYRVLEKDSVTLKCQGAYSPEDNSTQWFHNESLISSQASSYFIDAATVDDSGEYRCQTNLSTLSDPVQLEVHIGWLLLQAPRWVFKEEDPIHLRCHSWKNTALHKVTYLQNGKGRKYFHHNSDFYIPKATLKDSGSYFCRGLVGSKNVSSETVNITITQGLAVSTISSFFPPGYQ
T7 sequence (A3RFZ7 21-206): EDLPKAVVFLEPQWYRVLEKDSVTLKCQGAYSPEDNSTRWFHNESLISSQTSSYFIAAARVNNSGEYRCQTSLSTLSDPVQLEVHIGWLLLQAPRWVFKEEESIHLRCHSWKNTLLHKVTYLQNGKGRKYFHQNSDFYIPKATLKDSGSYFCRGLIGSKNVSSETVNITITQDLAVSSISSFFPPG

B1: MS1032LO06-SG1 (M103205H795-SG1/M103202L889-SK1) (antibody, human IgG1, kappa)
heavy: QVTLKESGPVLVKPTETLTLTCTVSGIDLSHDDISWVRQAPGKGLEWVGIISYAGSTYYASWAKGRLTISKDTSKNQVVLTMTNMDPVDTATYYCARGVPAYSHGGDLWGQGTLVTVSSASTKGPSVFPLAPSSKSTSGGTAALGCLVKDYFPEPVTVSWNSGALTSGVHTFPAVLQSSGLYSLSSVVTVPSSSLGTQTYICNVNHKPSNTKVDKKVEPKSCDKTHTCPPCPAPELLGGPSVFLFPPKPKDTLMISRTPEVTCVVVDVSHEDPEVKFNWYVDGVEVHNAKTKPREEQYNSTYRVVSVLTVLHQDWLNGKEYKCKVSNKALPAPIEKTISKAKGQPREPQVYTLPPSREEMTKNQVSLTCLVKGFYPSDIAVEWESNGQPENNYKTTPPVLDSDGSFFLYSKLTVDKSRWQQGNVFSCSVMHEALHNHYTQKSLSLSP
light: DIVMTQSPATLSLSPGERATLSCTSSQSVYHANWLSWFQQKPGQPPKLLIYWASTLAYGVPSRFSGSGSGTDFTLTISSLQPEDAATYYCAGGYGGGRYAFGQGTKVEIKRTVAAPSVFIFPPSDEQLKSGTASVVCLLNNFYPREAKVQWKVDNALQSGNSQESVTEQDSKDSTYSLSSTLTLSKADYEKHKVYACEVTHQGLSSPVTKSFNRGEC
notes: Anti-latent myostatin antibody
A word on the Kd: it is the concentration at which binding is half-saturated. As to B1, the Kd in [1] was 4.7 µM; in experiment [2], 4.8 µM; in experiment [3], 0.62 µM; in experiment [4], 0.89 µM; in experiment [5], 4.7 µM; in experiment [6] it was 8.6 µM. The Kd in [7] is 0.28 µM; in experiment [8], 1 µM.

B2: MS_M103205H795-SG1/M103202L889-SK1 (antibody, human IgG1, kappa)
heavy: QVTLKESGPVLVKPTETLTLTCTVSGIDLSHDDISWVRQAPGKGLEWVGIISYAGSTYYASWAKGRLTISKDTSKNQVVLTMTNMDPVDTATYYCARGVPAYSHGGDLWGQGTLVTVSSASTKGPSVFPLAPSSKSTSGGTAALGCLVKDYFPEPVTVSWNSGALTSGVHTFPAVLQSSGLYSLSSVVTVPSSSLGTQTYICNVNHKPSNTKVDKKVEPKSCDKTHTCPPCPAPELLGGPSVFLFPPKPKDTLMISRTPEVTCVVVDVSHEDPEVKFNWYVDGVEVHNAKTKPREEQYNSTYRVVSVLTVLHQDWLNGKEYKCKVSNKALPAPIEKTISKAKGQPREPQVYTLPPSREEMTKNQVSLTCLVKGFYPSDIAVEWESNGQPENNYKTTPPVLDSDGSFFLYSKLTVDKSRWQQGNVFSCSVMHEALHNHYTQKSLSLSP
light: B1 light
notes: Parent of the Fc variants; also called MS1032LO06-SG1
The molecule B2 registered a Kd in experiment [9] of 17 µM.

B3: M103205H795-MY052/M103202L889-SK1 (antibody, human IgG1, kappa)
heavy: QVTLKESGPVLVKPTETLTLTCTVSGIDLSHDDISWVRQAPGKGLEWVGIISYAGSTYYASWAKGRLTISKDTSKNQVVLTMTNMDPVDTATYYCARGVPAYSHGGDLWGQGTLVTVSSASTKGPSVFPLAPSSKSTSGGTAALGCLVKDYFPEPVTVSWNSGALTSGVHTFPAVLQSSGLYSLSSVVTVPSSSLGTQTYICNVNHKPSNTKVDKKVEPKSCDKTHTCPPCPAPELLNGPSVFLFPPKPKDTLMISRTPEVTCVVVDVSEEDPEVKFNWYVDGVEVHNAKTKPREEQYNSTYRVVSVLTVLHQDWLNGKEYKCKVSNKALPAPIEKTISKAKGQPREPQVYTLPPSREEMTKNQVSLTCLVKGFYPSDIAVEWESNGQPENNYKTTPMVLDSDGSFFLYSKLTVDKSRWQQGNVFSCSVMHEALHNHYTQKSLSLSP
light: B1 light
notes: Substitutions introduced into M103205H795-SG1; expressed with M103202L889-SK1 as light chain
B3: the Kd in [9] worked out at 3.9 µM.

B4: M103205H795-MY197/M103202L889-SK1 (antibody, human IgG1, kappa)
heavy: B3 heavy with E270D, A332K
light: B1 light
notes: as for B3
In turn, B4 displayed a Kd in [9] of 14 µM.

B5: M103205H795-MY051/M103202L889-SK1 (antibody, human IgG1, kappa)
heavy: B3 heavy with P273G, M398P
light: B1 light
notes: as for B3
Molecule B5 gave an equilibrium dissociation constant (Kd) in [9] of 18 µM.

B6: M103205H795-MY147/M103202L889-SK1 (antibody, human IgG1, kappa)
heavy: B3 heavy with L237W
light: B1 light
notes: as for B3
Molecule B6 had a dissociation constant Kd in experiment [9] of 6.6 µM.

B7: M103205H795-MY001/M103202L889-SK1 (antibody, human IgG1, kappa)
heavy: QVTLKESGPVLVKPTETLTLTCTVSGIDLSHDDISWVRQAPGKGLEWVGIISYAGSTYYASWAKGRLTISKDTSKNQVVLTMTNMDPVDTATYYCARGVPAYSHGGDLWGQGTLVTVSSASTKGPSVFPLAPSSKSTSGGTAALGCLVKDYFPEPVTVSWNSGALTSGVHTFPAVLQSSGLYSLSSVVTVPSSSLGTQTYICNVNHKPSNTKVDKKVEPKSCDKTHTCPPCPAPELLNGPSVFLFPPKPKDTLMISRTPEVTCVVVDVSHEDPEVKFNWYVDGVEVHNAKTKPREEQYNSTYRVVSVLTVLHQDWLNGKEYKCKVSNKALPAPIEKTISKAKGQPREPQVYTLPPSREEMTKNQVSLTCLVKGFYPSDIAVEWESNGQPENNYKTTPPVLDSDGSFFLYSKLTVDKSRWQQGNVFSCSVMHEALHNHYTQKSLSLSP
light: B1 light
notes: as for B3
Take B7: binding in experiment [9] was characterised by a dissociation constant (Kd) of 15 µM.

B8: M103205H795-MY048/M103202L889-SK1 (antibody, human IgG1, kappa)
heavy: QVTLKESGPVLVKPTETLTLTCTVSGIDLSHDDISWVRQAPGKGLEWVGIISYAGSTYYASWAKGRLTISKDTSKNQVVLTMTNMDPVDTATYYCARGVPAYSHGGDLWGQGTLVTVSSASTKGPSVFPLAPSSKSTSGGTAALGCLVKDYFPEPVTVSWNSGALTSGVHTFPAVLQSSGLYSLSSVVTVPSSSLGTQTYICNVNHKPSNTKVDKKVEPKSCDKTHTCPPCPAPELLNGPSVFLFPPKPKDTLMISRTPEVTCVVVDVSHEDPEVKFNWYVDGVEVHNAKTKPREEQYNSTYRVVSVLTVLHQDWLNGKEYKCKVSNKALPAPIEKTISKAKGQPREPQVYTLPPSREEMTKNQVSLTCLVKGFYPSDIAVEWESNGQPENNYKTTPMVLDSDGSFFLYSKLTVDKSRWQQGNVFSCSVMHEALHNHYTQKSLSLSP
light: B1 light
notes: as for B3
For B8, the Kd in [9] worked out at 70 µM.

B9: M103205H795-MY049/M103202L889-SK1 (antibody, human IgG1, kappa)
heavy: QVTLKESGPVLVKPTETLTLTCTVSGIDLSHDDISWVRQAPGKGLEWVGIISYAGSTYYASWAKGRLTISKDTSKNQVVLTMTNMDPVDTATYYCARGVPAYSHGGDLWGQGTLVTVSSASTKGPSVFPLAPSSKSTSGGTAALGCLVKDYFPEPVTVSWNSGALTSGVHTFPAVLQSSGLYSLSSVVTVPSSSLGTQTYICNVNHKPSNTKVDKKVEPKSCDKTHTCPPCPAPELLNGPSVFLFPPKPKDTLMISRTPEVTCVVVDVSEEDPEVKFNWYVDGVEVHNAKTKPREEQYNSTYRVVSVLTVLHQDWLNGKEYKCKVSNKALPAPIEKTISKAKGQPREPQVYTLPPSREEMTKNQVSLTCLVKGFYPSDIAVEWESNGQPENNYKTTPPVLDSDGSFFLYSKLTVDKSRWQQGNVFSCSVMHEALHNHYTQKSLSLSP
light: B1 light
notes: as for B3
Turning to B9, the Kd in experiment [9] worked out at 6.6 µM.

B10: M103205H795-MY047/M103202L889-SK1 (antibody, human IgG1, kappa)
heavy: not shown
light: B1 light
notes: as for B3
In the case of B10, binding in experiment [9] was characterised by a dissociation constant (Kd) of 24 µM.

B11: MS1032LO06-MY201 (M103205H795-MY201/M103202L889-SK1) (antibody, human IgG1, kappa)
heavy: B3 heavy with E270D, A332K, M398P
light: B1 light
notes: CH MY201 = SG1 with G236N/H268D/A330K (EU numbering); also called MS103205H795-MY201
B11: the Kd in experiment [1] came out at 0.85 µM; in experiment [2] it was 1.5 µM; in experiment [3], 37 µM; in experiment [4], 0.98 µM; in [5] it was 1.2 µM; in experiment [6], 1.8 µM. In addition, the results for the Kd in experiment [7] and in experiment [8] were 3.7 µM and 1.2 µM, respectively.

B12: M103205H795-MY117/M103202L889-SK1 (antibody, human IgG1, kappa)
heavy: B3 heavy with L236W, S269A
light: B1 light
notes: as for B3
For the molecule B12, the Kd in [9] is 9.9 µM.

B13: M103205H795-MY101/M103202L889-SK1 (antibody, human IgG1, kappa)
heavy: B3 heavy with A332K
light: B1 light
notes: also called MS1032LO06-MY101
B13: binding in experiment [9] was put at a Kd of 36 µM.

B14: M103205H795-MY105/M103202L889-SK1 (antibody, human IgG1, kappa)
heavy: B3 heavy with S241V
light: B1 light
notes: as for B3
The molecule B14 displayed a Kd in experiment [9] of 13 µM.

B15: M103205H795-MY141/M103202L889-SK1 (antibody, human IgG1, kappa)
heavy: B3 heavy with S269A, E270H
light: B1 light
notes: as for B3
As for B15, in [9], the equilibrium dissociation constant (Kd) was found to be 20 µM.

B16: M103205H795-MY050/M103202L889-SK1 (antibody, human IgG1, kappa)
heavy: B3 heavy with S269A, M398P
light: B1 light
notes: as for B3
For B16, binding in [9] was put at a Kd of 19 µM.

B17: M103205H795-MY115/M103202L889-SK1 (antibody, human IgG1, kappa)
heavy: B3 heavy with S269A
light: B1 light
notes: as for B3
Turning to B17, the Kd in experiment [9] is 76 µM.
